Reference: the supplement of paper PMC10567573

B1: ZC3H15 (parent)
chain: RKADFKAGKALVISGREVFEFRPE
B2: HESX1 (parent)
chain: ENKPSTCSFSIERILGLDQKKDCV

Variants of: B1
Assay: protein stability index of a GFP-peptide fusion (GPS, HEK-293T) (PSI 1-6); higher = more stable
Conditions: c terminus: a fixed tail appended
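Further: lentivirally expressed fusions sorted by FACS into six bins by GFP to DsRed ratio, PSI derived from sequencing read proportions per bin multiplied by bin number.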

Protein stability index: each site, then its substitutions
R22: P 3.25; N 3.07; V 2.78; T 3.03; Y 2.84; F 2.98; W 2.39; K 3.24; I 2.81; C 2.24; Q 3.83; A 3; L 2.35
F21: R 3.48; I 2.68; T 3.73; P 3.69; V 3.5; M 3.29; G 4.2; L 2.82; K 3.58; Y 3.21; W 2.85
L11: K 3.77; D 3.69; N 4.1; A 3.06; F 2.65; E 3.78; Q 3.66; T 3.76; I 2.72; H 3.36; Y 2.29; C 3.09; M 2.84; W 2.55; G 3.46; V 3.11
S14: F 1.23; T 2.98; A 2.86; V 1.43; G 3.11; P 3.44; M 2.49; H 3.31; D 3.82; N 2.66; L 1.57; C 1.21
I13: F 2.32; G 4; H 3.13; L 3.55; C 3.2; W 2.8; N 3.95; K 3.79; A 3.86; Y 2.77; E 4.28; P 3.48; S 3.8
A7: C 2.35; E 2.86; L 2.08; S 3.26; K 3.67; M 2.46; I 2.66; W 1.71; R 2.85; D 3.12; T 3.12
D4: M 2.54; G 2.42; L 1.91; R 2.55; Q 2.73; S 2.55; N 2.03; W 1.73; Y 2.12; A 2.36
K6: Q 2.44; P 2.72; I 2.42; R 2.29; L 2.29; C 2.79; V 3.03; G 2.4; H 2.6; S 2.82; A 2.71
A3: N 3.11; C 2.09; K 3.12; S 2.68; I 2.71; Y 2.52; L 2.57; T 3.24; Q 3.06
K9: H 2.93; Q 2.65; A 3.02; N 3.16; I 1.57; R 2.31; E 3.11; W 1.87; T 3.04; L 1.99; S 3.16; G 2.28; V 2.48
V12: R 3.31; E 3.49; I 2.85; H 3.52; G 3.17; S 3.47; D 4.03; N 3.93; L 2.42; P 3.82; W 2.4; Y 2.73; Q 3.15
A10: P 3.73; W 2.97; Q 3.17; T 2.88; E 2.97; H 2.75; K 2.47; C 2.12; D 3.5; R 3.09; G 2.86; N 3.16
P23: T 3.17; G 3.18; N 3.53; L 1.61; K 3.35; Q 3.31; R 2.73; F 2.27; V 1.94
E20: V 2.34; M 2.27; Q 2.74; L 2.51; Y 1.66; A 2.5; G 3.1; S 2.1
E24: M 2; S 2.78; F 1.85; P 2.44; C 2.22; A 2.69; D 3.11; N 2.84; T 2.52; I 1.94; K 2.31; V 2; H 2.18
F5: H 3.77; A 3.91; Y 3.16; Q 3.8; M 2.85; G 4.05; R 3.76; L 3.93; C 3.55
F19: I 3.51; T 3.7; R 4.24; G 3.7; S 3.51; Y 2.75; M 3.43; N 4.05
G15: C 2.07; R 2.73; A 2.64; I 2.37; Y 1.85; V 2.06; H 2.2; P 3.37; L 1.81; E 3.65; N 3.4
K2: E 2.81; H 2.46; G 3.3; Q 3.23; D 3.43; F 2.06; W 1.94; R 2.78; Y 2; M 2.33; N 3.24; S 3.02; T 3.06
R1: C 1.91; W 2.53; V 2.02; H 3.44; N 3.23; I 1.58; S 2.9; G 2.95; F 2.01; T 3.22; M 2.71; D 3.7; Y 2.81
G8: N 3.3; A 2.94; V 2.16; M 2.59; Y 1.74; I 2.23; E 2.99; P 2.65; Q 2.85; F 1.93
R16: G 2.99; S 3.21; D 3.69; P 3.27; E 3.7; I 1.92; N 3.63; T 2.99; A 2.71
E17: N 2.57; Y 2.19; G 2.3; V 2.25; Q 1.96; A 1.47; F 2.17; C 1.71; H 1.9; L 2.04; S 2.06
V18: N 3.61; K 3.56; G 3.37; Q 3.46; W 2.86

Variants of: B2
Assay: as above
Conditions: c terminus: a fixed tail appended

Protein stability index: each site, then its substitutions
P4: S 2.71; F 2.62; K 2.7; M 2.99; L 2.86; G 2.84; N 2.79; I 3.02; Q 3.18; D 3.86; H 2.52; C 2.42; A 2.99; R 3.41
E1: W 2.37; F 1.92; C 2.27; G 2.32; V 2.32; A 2.61; K 1.68; T 2.85; P 2.79; I 2.68; D 3.29; Y 1.95; R 2.79; H 2.73; Q 2.28; S 2.37; M 2.45; L 2.13; N 2.77
N2: M 2.53; H 2.57; T 2.91; G 2.49; P 2.82; I 2.32; L 2.79; R 2.88; F 1.97; A 2.15; W 1.91; V 2.88; E 3.52; Y 1.77; C 2.57; K 3.37; S 2.87; D 2.94; Q 2.93
K3: S 3.84; A 3.59; L 2.35; F 2.16; H 3.42; T 2.53; Y 2.83; M 2.92; R 2.58; C 2.78; Q 3.41; D 3.66; G 3.1; I 2.84; E 3.85; N 3.04; W 2.93; V 2.71; P 3.17
